Test results published in US6406872.

B1: UNC-49B GABA receptor subunit (UNC-49B.1 isoform) (receptor)
chain: QDEDSHINTQLLSSVLDRLTNRTTYDKRLRPRYGEKPVDVGITIHVSSISAVSEVDMDFTLDFYMRQTWQDPRLAFGSLDLGLSKEIDSLTVGVDYLDRLWKPDTFFPNEKKSFFHLATTHNSFLRIEGDGTVYTSQRLTVTATCPMDLKLFPMDSQHCKLEIESYGYETKDIDYYWGKKRTDLEITAVKFDTFQLPQFQPTLYFVNTTKAETSSGKYVRLALEVILVRNMGFYTMNIVIPSILIVTISWVSFWLNREASPARVGLGVTTVLTMTTLITTTNNSMPKVSYVKGLDVFLNFCFVMVFASLLEYAIVSYMNKRLVLRREKRRKAAEQQQRNEMPMFNASPKAANNNADLYFAGHNSSMNPLMEIPENCDCRTIPMMQHPRLVTDGAHTLWPAPFARPKKASKTCCQRWTPAKIDKLSRYGFPLSFSIFNIVYWLYMKYLSLNSSDKIQENDKWQQIH
B2: UNC-49C GABA receptor subunit (receptor)
chain: QDEDSHINTQLLSSVLDRLTNRTTYDKRLRPRYGEKPVDVGITIHVSSISAVSEVDMDFTLDFYMRQTWQDPRLAFGSLDLGLSKEIDSLTVGVDYLDRLWKPDTFFPNEKKSFFHLATTHNSFLRIEGDGTVYTSQRLTVTATCPMDLKLFPMDSQHCKLEIESYAYSTAEIEYKWCTSKEPNCSTAVKADANIELSSYKFTKICQKRTLASTSSGTYSRLRVSFIFDRDSGFYFLQIFFPASLVVVLSWISFWINRDSAPSRTLIGTMTVLTETHLMTGTNRRLPPVAYVKAVDVFLGFCYLLVILALIEYACVAYSKKKNEDRRRREKKTEHKPAPPTPDILHDVRLAECTCNAAPTSIIAVIKQSNRFCVSHSHIDIVSRAAFPLVFILFNTLFWLILLYKSKRLPYISEHEGDRCDAPDLH

How the values were obtained:
[1] = target: the molecule itself; assay: cell-based or functional assay
[2] = target: B1; assay: cell-based or functional assay

| Binder | EC50 (µM) of GABA, two-electrode voltage clamp, Xenopus oocytes injected with UNC-49B.1 mRNA alone [1] | EC50 (µM) of GABA, two-electrode voltage clamp, Xenopus oocytes co-injected with UNC-49B and UNC-49C RNA [2] |
| --- | --- | --- |
| B1 | 43.7 µM | – |
| B2 | – | 108 µM |
